Here are results for 1 molecule from patent US20030044888, “NOVEL STEROID-ACTIVATED NUCLEAR RECEPTORS AND USES THEREFOR” (published 2003).

The target of the series is SXR/RXR heterodimer (Homo sapiens, UniProt O75469;P19793 O75469:1-434,P19793:1-462). Briefly: EMSA; mutations prevented heterodimer binding; 10 mM Tris pH 8, 100 mM KCl, poly dI:dC, room temp. The conditions noted are these: tags: TNT (Promega); SXR initiator Leu changed to Met. As for the experimental part:
Electrophoretic mobility shift assays were performed using in vitro transcribed, translated proteins (TNT, Promega ). Proteins (1 μl each) were incubated for 20 minutes at room temperature with 100,000 cpm of Klenow-labeled probes in 10 mM Tris pH 8, 100 mM KCl, 6% glycerol, 0.05% NP-40, 1 mM dithiothreitol (DTT), 100 ng/μl poly dI:dC (Pharmacia, Piscataway, N.J.) and then electrophoresed through a 5% polyacrylamide gel in 0.5× TBE (45 mM Tris-base, 45 mM boric acid, 1 mM ethylenediaminetetraacetic acid (EDTA) at room temperature. For competition binding, protein plus unlabeled oligonucleotides at five or fifty fold molar excess were preincubated for ten minutes on ice, then labeled probes were added and incubated for 20 minutes at room temperature. Electrophoresis was as above. The IR series oligonucleotides tested had the following sequences: […]
In general terms: In EMSA bound probe runs differently from free probe, usually more slowly.

Chain of SXR/RXR heterodimer (O75469 whole entry, chain 1 of 2): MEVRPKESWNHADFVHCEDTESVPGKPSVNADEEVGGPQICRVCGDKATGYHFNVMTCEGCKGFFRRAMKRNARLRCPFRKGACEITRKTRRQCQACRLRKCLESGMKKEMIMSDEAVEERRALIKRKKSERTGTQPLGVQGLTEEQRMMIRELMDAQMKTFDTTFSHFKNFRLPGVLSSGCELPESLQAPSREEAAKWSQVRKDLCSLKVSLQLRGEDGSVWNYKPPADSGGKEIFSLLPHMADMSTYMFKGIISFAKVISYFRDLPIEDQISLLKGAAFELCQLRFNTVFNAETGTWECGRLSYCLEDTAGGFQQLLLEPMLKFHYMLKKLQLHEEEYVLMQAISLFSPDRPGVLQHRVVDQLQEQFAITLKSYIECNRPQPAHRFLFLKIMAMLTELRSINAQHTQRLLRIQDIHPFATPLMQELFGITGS
Chain of SXR/RXR heterodimer (P19793 whole entry, chain 2 of 2): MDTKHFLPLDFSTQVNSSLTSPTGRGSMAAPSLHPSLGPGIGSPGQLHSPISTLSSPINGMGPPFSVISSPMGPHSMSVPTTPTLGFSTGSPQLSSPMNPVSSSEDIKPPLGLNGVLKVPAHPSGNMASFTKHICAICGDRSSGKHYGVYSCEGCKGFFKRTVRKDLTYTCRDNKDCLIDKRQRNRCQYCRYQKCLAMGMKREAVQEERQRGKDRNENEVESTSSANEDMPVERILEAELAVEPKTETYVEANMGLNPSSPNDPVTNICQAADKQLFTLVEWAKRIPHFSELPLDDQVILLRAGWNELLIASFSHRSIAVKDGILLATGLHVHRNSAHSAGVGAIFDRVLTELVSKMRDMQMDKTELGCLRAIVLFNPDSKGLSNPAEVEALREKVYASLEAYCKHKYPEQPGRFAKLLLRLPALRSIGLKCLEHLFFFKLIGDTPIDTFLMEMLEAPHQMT

B1: IR-M (dsDNA)
DNA 1: AGCTTACGTCATGACGTA
DNA 2: TACGTCATGACGTAAGCT
B1: the binding result is recorded as “no binding”.
